Reference: article PMC4297639 (Nature protocols, 2014)

Molecular target: BACE2 (aspartic protease, recombinant, wild-type) (Homo sapiens (assumed; ), UniProt Q9Y5Z0)
Experiment: crystal structure

BACE2 (aspartic protease, recombinant, wild-type), sequence (Q9Y5Z0 21-518): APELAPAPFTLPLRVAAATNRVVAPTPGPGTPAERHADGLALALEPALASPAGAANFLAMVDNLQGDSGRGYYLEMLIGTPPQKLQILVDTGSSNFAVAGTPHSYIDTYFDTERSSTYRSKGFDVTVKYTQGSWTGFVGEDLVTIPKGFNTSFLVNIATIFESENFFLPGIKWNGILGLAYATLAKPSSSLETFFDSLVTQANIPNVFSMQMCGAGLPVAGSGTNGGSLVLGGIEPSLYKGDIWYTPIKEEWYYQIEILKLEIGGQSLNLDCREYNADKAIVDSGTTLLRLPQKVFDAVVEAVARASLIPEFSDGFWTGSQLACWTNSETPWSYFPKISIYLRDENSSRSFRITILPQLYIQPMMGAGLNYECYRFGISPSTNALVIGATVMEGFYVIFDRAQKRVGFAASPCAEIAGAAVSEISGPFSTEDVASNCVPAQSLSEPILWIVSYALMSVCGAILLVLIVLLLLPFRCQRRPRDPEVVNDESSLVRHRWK

B1: Nanobody XA4815 (VHH)
VHH: QVQLQESGGGLVQAGGSLRLSCAASGFTFSRAAMRWVRRAPERGLEWVANINAGDGSASYADFVKGRFTASRDKAGNRLYLQMDNLRPNDTAVYYCIYNGHRGQGTQVTVSS
- binding result: binds
